Each block holds one binder with its values, some of them ahead of it.
What was measured:
[1] = target: T1, His6-Fy-1 (Tbck), subunit of the reconstituted FERRY complex (human, UniProt Q8TEA7 1-893); test: SEC
T1 sequence (looked up): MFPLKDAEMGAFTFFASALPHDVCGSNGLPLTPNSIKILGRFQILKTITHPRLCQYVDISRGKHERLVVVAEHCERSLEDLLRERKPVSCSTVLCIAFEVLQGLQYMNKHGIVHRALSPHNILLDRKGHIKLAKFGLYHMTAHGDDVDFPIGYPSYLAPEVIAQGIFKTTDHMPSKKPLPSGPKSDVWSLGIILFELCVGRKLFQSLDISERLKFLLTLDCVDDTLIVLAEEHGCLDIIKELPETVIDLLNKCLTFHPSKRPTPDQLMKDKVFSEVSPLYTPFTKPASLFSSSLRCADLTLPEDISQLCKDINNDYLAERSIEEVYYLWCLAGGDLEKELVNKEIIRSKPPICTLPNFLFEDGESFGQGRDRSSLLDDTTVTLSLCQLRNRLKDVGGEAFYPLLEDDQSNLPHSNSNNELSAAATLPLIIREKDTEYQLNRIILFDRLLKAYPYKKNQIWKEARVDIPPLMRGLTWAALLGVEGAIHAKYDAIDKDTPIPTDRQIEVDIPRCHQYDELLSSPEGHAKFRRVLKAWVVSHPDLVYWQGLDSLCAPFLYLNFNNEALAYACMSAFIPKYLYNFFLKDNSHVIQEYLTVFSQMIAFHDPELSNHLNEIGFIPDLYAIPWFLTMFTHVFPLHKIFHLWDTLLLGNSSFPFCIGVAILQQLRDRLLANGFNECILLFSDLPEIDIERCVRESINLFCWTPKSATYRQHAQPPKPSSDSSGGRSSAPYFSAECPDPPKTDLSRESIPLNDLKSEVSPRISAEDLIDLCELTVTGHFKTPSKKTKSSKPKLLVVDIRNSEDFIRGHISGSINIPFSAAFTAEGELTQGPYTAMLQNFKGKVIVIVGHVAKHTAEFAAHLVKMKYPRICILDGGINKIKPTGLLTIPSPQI

[2] = target: Fy-1 (TBCK);Fy-2 (PPP1R21);Fy-3 (C12orf4);Fy-4 (CRYZL1);Fy-5 (GATD1) (Homo sapiens;Homo sapiens;Homo …, UniProt Q8TEA7;Q6ZMI0;Q9NQ89;O95825;Q8NB37 1-893;1-780;1-552;1-349;1-220, ||||); test: EMSA

B2: mrpl41 5'UTR (ssRNA)
RNA: GGGGCUCUUGCUGCGACGCAGCGGUCGGAAGCGGAGCAAGGUCGAGGCCGGGUUGGCGCCGGAGCCGGGGCCGCUUGGAGCUCGUGUGGGGUCUCCGGUCCAGGGCGCGGCGCGGCCGC
- binding result [2]: no binding

B3: Fy-2 (Ppp1r21), untagged subunit of the reconstituted FERRY complex (natural protein, human, UniProt Q6ZMI0 1-780, looked up)
chain: MASAELQGKYQKLAQEYSKLRAQNQVLKKGVVDEQANSAALKEQLKMKDQSLRKLQQEMDSLTFRNLQLAKRVELLQDELALSEPRGKKNKKSGESSSQLSQEQKSVFDEDLQKKIEENERLHIQFFEADEQHKHVEAELRSRLATLETEAAQHQAVVDGLTRKYMETIEKLQNDKAKLEVKSQTLEKEAKECRLRTEECQLQLKTLHEDLSGRLEESLSIINEKVPFNDTKYSQYNALNVPLHNRRHQLKMRDIAGQALAFVQDLVTALLNFHTYTEQRIQIFPVDSAIDTISPLNQKFSQYLHENASYVRPLEEGMLHLFESITEDTVTVLETTVKLKTFSEHLTSYICFLRKILPYQLKSLEEECESSLCTSALRARNLELSQDMKKMTAVFEKLQTYIALLALPSTEPDGLLRTNYSSVLTNVGAALHGFHDVMKDISKHYSQKAAIEHELPTATQKLITTNDCILSSVVALTNGAGKIASFFSNNLDYFIASLSYGPKAASGFISPLSAECMLQYKKKAAAYMKSLRKPLLESVPYEEALANRRILLSSTESREGLAQQVQQSLEKISKLEQEKEHWMLEAQLAKIKLEKENQRIADKLKNTGSAQLVGLAQENAAVSNTAGQDEATAKAVLEPIQSTSLIGTLTRTSDSEVPDVESREDLIKNHYMARIVELTSQLQLADSKSVHFYAECRALSKRLALAEKSKEALTEEMKLASQNISRLQDELTTTKRSYEDQLSMMSDHLCSMNETLSKQREEIDTLKMSSKGNSKKNKSR
- stoichiometry N [1]: 2

B6: atp5f1b (atp5b) 3'UTR-50A (ssRNA)
RNA: GGGGGGGUCUUUGUCCUCUGUACUGUCUCUCUCCUUGCCCCUAACCCAAAAAGCUUCAUUUUUCUGUGUAGGCUGCACAAGAGCCUUGAUUGAAGAUAUAUUCUUUCUGAACAGUAUUUAAGGUUUCCAAUAAAAUGUACACCCCUCAGAAAAAAAAAAAAAAAAAAAAAAAAAAAAAAAAAAAAAAAAAAAAAAAAAAAAGCGGCCGC
- binding result [2]: no binding

Further lines, results first:

- stoichiometry N [1]: 1
B1: Fy-3 (C12orf4), untagged subunit of the recombinant FERRY and GST-FERRY complexes (natural protein, human, UniProt Q9NQ89 1-552, looked up)
chain: MKKNRERFCNREREFVYKFKVGSQCLELRVPLKFPVQENASHLHGRLMLLHSLPCFIEKDLKEALTQFIEEESLSDYDRDAEASLAAVKSGEVDLHQLASTWAKAYAETTLEHARPEEPSWDEDFADVYHDLIHSPASETLLNLEHNYFVSISELIGERDVELKKLRERQGIEMEKVMQELGKSLTDQDVNSLAAQHFESQQDLENKWSNELKQSTAIQKQEYQEWVIKLHQDLKNPNNSSLSEEIKVQPSQFRESVEAIGRIYEEQRKLEESFTIHLGAQLKTMHNLRLLRADMLDFCKHKRNHRSGVKLHRLQTALSLYSTSLCGLVLLVDNRINSYSGIKRDFATVCQECTDFHFPRIEEQLEVVQQVVLYARTQRRSKLKESLDSGNQNGGNDDKTKNAERNYLNVLPGEFYITRHSNLSEIHVAFHLCVDDHVKSGNITARDPAIMGLRNILKVCCTHDITTISIPLLLVHDMSEEMTIPWCLRRAELVFKCVKGFMMEMASWDGGISRTVQFLVPQSISEEMFYQLSNMLPQIFRVSSTLTLTSKH

- stoichiometry N [1]: 2
B4: His6-Fy-4 (Cryzl1) (natural protein, human, UniProt O95825 1-349, looked up)
chain: MKGLYFQQSSTDEEITFVFQEKEDLPVTEDNFVKLQVKACALSQINTKLLAEMKMKKDLFPVGREIAGIVLDVGSKVSFFQPDDEVVGILPLDSEDPGLCEVVRVHEHYLVHKPEKVTWTEAAGSIRDGVRAYTALHYLSHLSPGKSVLIMDGASAFGTIAIQLAHHRGAKVISTACSLEDKQCLERFRPPIARVIDVSNGKVHVAESCLEETGGLGVDIVLDAGVRLYSKDDEPAVKLQLLPHKHDIITLLGVGGHWVTTEENLQLDPPDSHCLFLKGATLAFLNDEVWNLSNVQQGKYLCILKDVMEKLSTGVFRPQLDEPIPLYEAKVSMEAVQKNQGRKKQVVQF

- stoichiometry N [1]: 4
B5: His6-Fy-5 (Gatd1) (natural protein, human, UniProt Q8NB37 1-220, looked up)
chain: MASERLPNRPACLLVASGAAEGVSAQSFLHCFTMASTAFNLQVATPGGKAMEFVDVTESNARWVQDFRLKAYASPAKLESIDGARYHALLIPSCPGALTDLASSGSLARILQHFHSESKPICAVGHGVAALCCATNEDRSWVFDSYSLTGPSVCELVRAPGFARLPLVVEDFVKDSGACFSASEPDAVHVVLDRHLVTGQNASSTVPAVQNLLFLCGSRK

Reference: publication doi:10.1101/2021.06.20.449167 (bioRxiv, 2021)
